The record followed here is the nanobody polyreactivity screen of Harvey et al. (2022).

The nature of this data set: yeast display, Sf9 membrane polyspecificity reagent, FACS + sequencing; frameworks hold sequencing errors. A digest of the protocol: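 A nanobody's polyreactivity label depends on the gate it was sorted from. Yeast display cells were stained with 10% biotinylated, detergent-solubilized Sf9 membrane reagent for 1 hour at 4 °C, enriched on streptavidin microbeads and sorted by FACS. The low and high (top ~1%) gates were set on anti-HA fluorescence for expression and streptavidin fluorescence for reagent binding.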
As to “QVQLVESGGGLVQAGGSLRLSCAASGRILYPYAMGWYRQAPGKERELVAAITFIGGTTYYADSVKGRFTLSRDNAKNTLYLQRNSLKQEDTAVYYCSTAGPYGSRNDYWGQGTQVTVSS”, the “polyreactivity (PSR sort gate)” value is “high polyreactivity”.

Regarding “QVQLVESGGGLVQAGGSLRLSCAASGRILYQYDMGWYRQAPGKERELVASISRSGGRTYYADSVKGRFTISRDNAKNTVYLQMNSLNPEDTAVYYCAAELTYFGYPIDFDSWGQGTQVSVSS”, the “polyreactivity (PSR sort gate)” value is listed as “low polyreactivity”.

Regarding “QVQLVESGGGLVQAGGSLRLSCAASGRILYRYVMGWYRQAPGKERELVAGISWSGGSTYYADSVKGRFTISRDNAKNTVYLQMNSLNPEDTAVYYCNKYIGALGRWGYDYWGQGTQVTVSS”, the “polyreactivity (PSR sort gate)” value was “low polyreactivity”.

For “QVQLVESGGGLVQAGGSLRLSCAASGRILYSYAMGWYRQAPGKERELVAAISSTGSTYYADSVKGRFTISRDNAKNTVYLQMNSLKPEDTAVYYCAATFFPYQVHHYYYWGQGTQVTVSS”, the “polyreactivity (PSR sort gate)” value is on record as “low polyreactivity”.

For the sequence “QVQLVESGGGLVQAGGSLRLSCAASGRILYVYVMGWYRQGPGKASELVAAISRRGGGTSYADSVKGLFTISRDNAKNTVYLQLNSLKPEDTTVYYCAASSTEFPTDYLAIDDYWGQGTQVTVSS”, the “polyreactivity (PSR sort gate)” value is on record as “low polyreactivity”.

For the sequence “QVQLVESGGGLVQAGGSLRLSCAASGRILYYYAMGWYRQAPGKERELVAAINSSGGSTYYADSVKGRFTISRDNAKNTVYLQMNSLKPEDTAVYYCAALRGIVLWYPPSYFRYDYWGQGTQVTVSS”, the “polyreactivity (PSR sort gate)” value was “high polyreactivity”.

On to “QVQLVESGGGLVQAGGSLRLSCAASGRILYYYAMGWYRQAPGKERELVAAINSSGGSTYYADSVKGRFTISRDNAKNTVYLQMNSLKPEDTAVYYCAALRGNVLWYPPSYFRYDYWGQGTQVTVSS”, for which the “polyreactivity (PSR sort gate)” value is given as “high polyreactivity”.

On to “QVQLVESGGGLVQAGGSLRLSCAASGRIMPFYAMGWYRQAPGKERELVATISWTSDSTYYADSVKGRFTISRDNAKNTVFLQMNSLKPEDTAVYYCAREYTYTYASTVIYDHWGQGTQVTVSS”, for which the “polyreactivity (PSR sort gate)” value is “low polyreactivity”.

Regarding “QVQLVESGGGLVQAGGSLRLSCAASGRINEYYAMGWYRQAPGKERELVAAISSGGSTYYADSVKGRFTISRDNAKNTVYFQMNSLKPEDTAVYYCAAVYSSYGRRYNSWGQGTQVTVSS”, the “polyreactivity (PSR sort gate)” value was “high polyreactivity”.

As to “QVQLVESGGGLVQAGGSLRLSCAASGRIRGNVMGWYRQAPGKERELVAAISKSGGSTYYADSVKGRFTISRDNAKNTVYLQMNSLKPEDTAVYYCAAAYGQYTSYYRFGSWGQGTQVTVSS”, the “polyreactivity (PSR sort gate)” value is listed as “high polyreactivity”.

For “QVQLVESGGGLVQAGGSLRLSCAASGRISGVNAMGWYRQAPGKERELVATISGSGGRTYYADSVKGRFTISRDNAKNTVYLQMNSLKPEDTAVYYCNTLVQRGGYFSRRFDYWGQGTQVTVSS”, the “polyreactivity (PSR sort gate)” value is on record as “low polyreactivity”.

In the case of “QVQLVESGGGLVQAGGSLRLSCAASGRISGYNMGWYRQAPGKERELVAAISNGGSTNYADSVKGRFTISRDNAKNTVYLQMNSLKPEDTAVYYCNRRVPYSFYSRGYYYWGQGTQVTVSS”, the “polyreactivity (PSR sort gate)” value is reported as “high polyreactivity”.

With “QVQLVESGGGLVQAGGSLRLSCAASGRISPKNAMGWYRQAPGKERELVATIRKIGGRTYYADSVKGRFTISRDNAKNTVYLQMNSLKPEDTAVYYCATDFAPSYYPDRFDYRGQGTQVTVSS”, the “polyreactivity (PSR sort gate)” value is “low polyreactivity”.

Take “QVQLVESGGGLVQAGGSLRLSCAASGRISPKNAMGWYRQAPGKERELVATIRKIGGRTYYADSVKGRFTISRDNAKNTVYLQMNSLKPEDTAVYYCATDFAPSYYPDRFDYWGQGTQVTVSW”: the “polyreactivity (PSR sort gate)” value was “low polyreactivity”.

On to “QVQLVESGGGLVQAGGSLRLSCAASGRISPKNAMGWYRQAPGKERELVATIRKIGGRTYYADSVKGRFTISRDNAKNTVYLQMNSLKPEDTAVYYCATDFAQSYYPDRFDYWGQGTQVTVSS”, for which the “polyreactivity (PSR sort gate)” value is recorded as “low polyreactivity”.

In the case of “QVQLVESGGGLVQAGGSLRLSCAASGRISRFYAMGWYRQAPGKERELVAGIRSGDSTNYADSVKGRFTISRDNAKNTVYLQMNSLKPEDTAVYYCAAVVFSDGRYGRANRMYYWGQGTQVTVSS”, the “polyreactivity (PSR sort gate)” value is “high polyreactivity”.

Consider “QVQLVESGGGLVQAGGSLRLSCAASGRISRGNAMGWYRHAPGKEREFVAAISWSGDGTYYADSVKGRFTISRDNAKNTVYLQMNSLKPEDTAVYYCADGATPRYSKYDYWGQGTQGTVSS”, for which the “polyreactivity (PSR sort gate)” value is reported as “low polyreactivity”.

As to “QVQLVESGGGLVQAGGSLRLSCAASGRISRIYAMGWYRQAPGKERELVAAIRGRGGSTYYADSVKGRFTISRDNAKNTVYLQMNSLKPEVTAVYYCAADGWARYEYWGQGTQVTVSS”, the “polyreactivity (PSR sort gate)” value is “high polyreactivity”.

On to “QVQLVESGGGLVQAGGSLRLSCAASGRISRNYAMGWYRQAPGKERELVAAINRGGSTYYADSVKGRFTISRDNAKNTVYLQMNSLKPEDTAVYYCAARYPNQYDYWGQGTQVTVSS”, for which the “polyreactivity (PSR sort gate)” value is on record as “high polyreactivity”.

Take “QVQLVESGGGLVQAGGSLRLSCAASGRISRSNTMGWYRQAPGKERELVAAISRGGGSTYYADSVKGRFTISRDNAKNTVYLQMKSLKPEDTAVYYCAKRSAITGYEYWGQGTQVTVSS”: the “polyreactivity (PSR sort gate)” value is “high polyreactivity”.

As to “QVQLVESGGGLVQAGGSLRLSCAASGRISSVYAMGLYRQAPGKERELVAGITWSDARTYYADSVKGRFTISRDNAKNTVYLQMNSLKPEDTAVYYCAADYYYYERDYWGQGTQVTVSS”, the “polyreactivity (PSR sort gate)” value is listed as “low polyreactivity”.

Take “QVQLVESGGGLVQAGGSLRLSCAASGRISVANAMGWYIQAPGKERELVARISEGVGSTYYADSVKGRFTISRDTAKNTVYLQMNSLKPEDTAVYYCAAYQDYVYSESLFSVSARMYYWGQGTQVTVSS”: the “polyreactivity (PSR sort gate)” value is listed as “low polyreactivity”.

“QVQLVESGGGLVQAGGSLRLSCAASGRISVVNAMGWYRQAPGKERELVATINRGGSTYADSVKGRFTISRDNAKNTVYLQMNSLKPEDTAVYYCAARTFRISRMDYWGQGTQVTVSS”: the “polyreactivity (PSR sort gate)” value was “high polyreactivity”.

Regarding “QVQLVESGGGLVQAGGSLRLSCAASGRIVEGNVMGWYRQAPGKERELVAGISSGGSTTYADSVKGRFTISRDNAKNTVYLQMNSLKPEDTAVYYCAASRKRFRHSSYRFYYCGQGTQVTVSS”, the “polyreactivity (PSR sort gate)” value was “high polyreactivity”.

For “QVQLVESGGGLVQAGGSLRLSCAASGRIVKFYDMGWYRQAPGKEREFVAAISRRGSSTYYADSVKGRFTISRDNAKNTVYLQMNSLKPEDTAVYYCAADWTFGAIGYYYWGHGTQVTVSS”, the “polyreactivity (PSR sort gate)” value is “high polyreactivity”.

For “QVQLVESGGGLVQAGGSLRLSCAASGRIVKYAMGWYRQAPGKERELVAAISGSGGTTYYADSVKGRFTISRDNAKNTVYLQMNSLKPEETAVYYCAASRPRPPSSRRMDYWGQGTQVTVSS”, the “polyreactivity (PSR sort gate)” value is given as “high polyreactivity”.

“QVQLVESGGGLVQAGGSLRLSCAASGRIVWYAMGWYRQAPGKERELVAAINWSGGSTYYADSVKGRFTISRDNAKNTVYLQMNSLKPEDTAVYYCAADVRNYWLEYEYWGQGTQVTVSS”: the “polyreactivity (PSR sort gate)” value was “low polyreactivity”.

For the sequence “QVQLVESGGGLVQAGGSLRLSCAASGRIVYLNAMGWYRQPPGKERELVAAINTSGDSTYYADSVKGRFTISRDNAKNTVYLQMNSLKPVDTAVYYCAAYVIGPDQFIYDYWGQGTQVTVSS”, the “polyreactivity (PSR sort gate)” value was “low polyreactivity”.

Regarding “QVQLVESGGGLVQAGGSLRLSCAASGRIYCKYAMGRYRQAPGKERELVAGISRGAGRTYYADSVKGRFTISRDNAKNTVYLQMNSLKPADTAVSYCAAVPSYHSTSPFYYWGQGTQVTVSS”, the “polyreactivity (PSR sort gate)” value is “high polyreactivity”.

As for “QVQLVESGGGLVQAGGSLRLSCAASGRIYGFNTMGWYRQAPGKERELVAAITTSGVSTYYADSVKGRFTISRDNAKNTVYLQMNSLKPEDTAVYYCAARWYRTGPYKRRDYWGQGTQVTVSS”, the “polyreactivity (PSR sort gate)” value is “high polyreactivity”.

As for “QVQLVESGGGLVQAGGSLRLSCAASGRIYINNAMGWYRQAPGKDREFVAAITSGGRTYYADSVKGRFTISRDNAKYTVYLQMNSLKPEDTAVYYCAPRYYRQYTRHYGYGYWGQGTQVTVSS”, the “polyreactivity (PSR sort gate)” value is listed as “high polyreactivity”.

As for “QVQLVESGGGLVQAGGSLRLSCAASGRIYPYYAMGWYRQAPGKERELVAAITTRGGSTYYADSVKGRFTISRDNAKNTVYLQMNSLKPEDTAVYYCAAVTFGRMEYWGQGTQVTVSS”, the “polyreactivity (PSR sort gate)” value is “low polyreactivity”.

On to “QVQLVESGGGLVQAGGSLRLSCAASGRIYPYYDMGSYRPAPGKERELVAAITWNGGSTYYADSVKGRFTISRDYAKNTVYLQMNSLKPEDTAVYYCAVEPYYYGEDYWGQGTQVTVSS”, for which the “polyreactivity (PSR sort gate)” value is “low polyreactivity”.

On to “QVQLVESGGGLVQAGGSLRLSCAASGRIYRYAMGWYRQAPGKERELVAAISGGGGRTYYADSVKGRFTISRDNAKNTFYLQLNSLKPEVTAVYDCAVDPYFYYYGDYYFDYWGQGTQVTVSS”, for which the “polyreactivity (PSR sort gate)” value is recorded as “high polyreactivity”.

As for “QVQLVESGGGLVQAGGSLRLSCAASGRIYRYAMGWYRQAPWKERELVASISRRGGSTYYADSVKGRFTISRDNAKNTVYVQMNSLKPEDTALYSCNAYGYSFCYDYWGHGTQVTVSS”, the “polyreactivity (PSR sort gate)” value is “high polyreactivity”.

Regarding “QVQLVESGGGLVQAGGSLRLSCAASGRIYWLYAMGWYRQAPGKERELVAAITGIGGSTYYADSVKVRFTISRDNAKNTVYLQMNSLKPEDTAVYYCAARNPASTAWMNYWGQGTQVNVSS”, the “polyreactivity (PSR sort gate)” value is recorded as “low polyreactivity”.

With “QVQLVESGGGLVQAGGSLRLSCAASGRLFKIYAMGWYRQAPGKERELVATISSGGRTNYADSVKGRFTISRDNAKNTVYLQMNSLKPEDTAVYYCNAGARVLYETESFDYWGQGIQVTVSS”, the “polyreactivity (PSR sort gate)” value is “low polyreactivity”.

On to “QVQLVESGGGLVQAGGSLRLSCAASGRMFHIYAMGWYRQAPGKERELVAGITTSGGSTYYADSVKGRFTISRDNAKNTVYLQMNSLKPEDTSVDYCARDGLWWCGLTKRWWEFYYWGQGTQVTVSS”, for which the “polyreactivity (PSR sort gate)” value is “low polyreactivity”.

In the case of “QVQLVESGGGLVQAGGSLRLSCAASGRMFYYYVMGWYRQAPGKESELVAVIDWSGGSTYYADSLKGRFTISRDTAKNTVYLQMNSLKPEDTAVYYCARVPYGNPNGNTPYGDNRYNSWGQGTQVTVSS”, the “polyreactivity (PSR sort gate)” value is reported as “low polyreactivity”.

Consider “QVQLVESGGGLVQAGGSLRLSCAASGRNFDWYAMGWYRQAPGKERELVAAISTSGANTYYADSVKGRFTISRDNAKNTVYLQMNSLKPEDTAVYYCATDPYQPYEGDYWGQGTLVTVSS”, for which the “polyreactivity (PSR sort gate)” value is “low polyreactivity”.
